# Laboratory results published in EP4585616A1, “ANTIBODY CAPABLE OF SPECIFICALLY BINDING TO ROR1, […] THEREOF, AND PREPARATION METHOD THEREFOR AND USE THEREOF” (Hefei Institutes of Physical Science, Chinese Academy of …, priority 2022, dated 2024).
# Residue numbers refer to the chain shown, from its start.
# B1: Hu001-05 (antibody, V domains shown)
# VH: QVQLVQSGAEVKKPGASVKVSCKASGYTFTDYNLHWVRQAPGQGLEWMGYINPNHDATSYNQKFQGKVTMTVDTSTSTVYMELSSLRSEDTAVYYCARRVRTGTGLDDWGQGTTVTVSS
# VL: DVVMTQSPLSLPVTLGQPASISCRSSHNIVHTNANTYLEWYQQRPGQSPRLLIYKVSNRFSGVPDRFSGSGSGTDFTLKISRVEAEDVGVYYCFQGSRFPYTFGGGTKVEIK
# notes: Humanized; also called Hu001-5
# B2: Hu001-02 (antibody, V domains shown)
# VH: B1 VH with K67R, V72R
# VL: B1 VL
# notes: Humanized; also called Hu001-2
# B3: Hu001-2-MMAE (antibody, human IgG1, DAR about 4.15, V domains shown)
# VH: B1 VH with K67R, V72R
# VL: B1 VL
# modifications: vcMMAE on cysteines after TCEP reduction, positions not given
# notes: Antibody-drug conjugate of Hu001-2 (human IgG1, Kappa) with vcMMAE
# B4: Hu001-03 (antibody, V domains shown)
# VH: B1 VH with K67R, V72R
# VL: B1 VL with R50K
# notes: Humanized; also called Hu001-3
# B5: Hu001-3-MMAE (antibody, human IgG1, DAR about 4.15, V domains shown)
# VH: B1 VH with K67R, V72R
# VL: B1 VL with R50K
# modifications: vcMMAE on cysteines after TCEP reduction, positions not given
# notes: Antibody-drug conjugate of Hu001-3 (human IgG1, Kappa) with vcMMAE
# B6: Hu001-06 (antibody, V domains shown)
# VH: B1 VH
# VL: B1 VL with R50K
# notes: Humanized; also called Hu001-6
# B7: Hu001-08 (antibody, V domains shown)
# VH: B1 VH with R38K, M48I
# VL: B1 VL
# notes: Humanized; also called Hu001-8
# B8: Hu001-11 (antibody, V domains shown)
# VH: B1 VH with R38K, M48I, V68A, M70L
# VL: B1 VL
# notes: Humanized
# B9: Hu001-12 (antibody, V domains shown)
# VH: B1 VH with R38K, M48I, V68A, M70L
# VL: B1 VL with R50K
# notes: Humanized
# B10: Hu001-14 (antibody, V domains shown)
# VH: B1 VH with R38K, M48I, V68A, M70L, V79A, R87T
# VL: B1 VL
# notes: Humanized
# B11: Hu001-15 (antibody, V domains shown)
# VH: B1 VH with R38K, M48I, V68A, M70L, V79A, R87T
# VL: B1 VL with R50K
# notes: Humanized
# B12: Hu005-46 (antibody, V domains shown)
# VH: EVQLVESGGGLVKPGGSLRLSCAASGFTFNSYAMSWVRQTPGKRLEWVATISDAGSYTYYPDNEKGRFTISRDNAKNSLYLQMNSLRAEDTAIYYCVRGGYYYNLYAMDYWGQGTLVTVSS
# VL: DIVLTQSPDSLAVSLGERATINCKASQSVSFPGTSLMHWYQQKPGQQPKLLIYRASNLEAGVPDRFSGSGSRTDFTLTISSLQAEDVAVYYCQQSREYPWTFGGGTKVEIK
# notes: Humanized
# B13: Hu005-35 (antibody, V domains shown)
# VH: B12 VH with G42E, S78N
# VL: B12 VL
# notes: Humanized
# B14: Hu005-40 (antibody, V domains shown)
# VH: B12 VH with G42E, R44G, S78N
# VL: B12 VL
# notes: Humanized
# B15: Hu005-41 (antibody, V domains shown)
# VH: B12 VH with S78N
# VL: B12 VL
# notes: Humanized
# B16: Hu005-42 (antibody, V domains shown)
# VH: B12 VH with G42E
# VL: B12 VL
# notes: Humanized
# B17: Hu005-43 (antibody, V domains shown)
# VH: B12 VH with R44G, S78N
# VL: B12 VL
# notes: Humanized
# B18: Hu005-44 (antibody, V domains shown)
# VH: B12 VH with R44G
# VL: B12 VL
# notes: Humanized
# B19: Hu005-44-MMAE (antibody, human IgG1, DAR about 4.12, V domains shown)
# VH: B12 VH with R44G
# VL: B12 VL
# modifications: vcMMAE on cysteines after TCEP reduction, positions not given
# notes: Antibody-drug conjugate of Hu005-44 (human IgG1, Kappa) with vcMMAE
# B20: Hu005-45 (antibody, V domains shown)
# VH: B12 VH with G42E, R44G
# VL: B12 VL
# notes: Humanized
# B21: mAb001c_v1 (antibody, IgG1, V domains shown)
# VH: EVRLQQSGPVLVKPGASVKMSCKASGYTFTDYNLHWVKQSHRQSLEWIGYINPNHDATSYNQKFQGKATLTVDRSSSTAYMEFRSLTSEDSAVYYCARRVRTGTGLDDWGQGTTLTVSS
# VL: DVLMTQSPLSLPVSLGDQASISCRSSHNIVHTNANTYLEWYLQKPGQSPKLLIYKVSNRFSGVPDRFSGSGSGTYFTLTISRVEAEDLGVYYCFQGSRFPYTFGGGTKLEIK
# notes: Chimeric mutant in hIgG1,k vector; the entries already hold the site-directed changes; also called human-mouse chimeric antibody mutant of mAb001c; site-directed mutant of mAb001c
# B22: mAb005c_v1 (antibody, IgG1, V domains shown)
# VH: B12 VH with R19K, G42E, S78N, N84S, S85H, R87K, A88S, L116S
# VL: DIVLTQSPASLAVSLGQRAIISCKASQSVSFPGTSLMHWYQQKPGQQPKLLIYRASNLEAGVPTRFSGSGSRTDFTLNIHPVEEDDTATYYCQQSREYPWTFGGGTQLEIK
# notes: Chimeric mutant in hIgG1,k vector; the VH entry already holds the site-directed change; also called human-mouse chimeric antibody mutant of mAb005c; site-directed mutant of mAb005c
# B23: Hu005-46-MMAE (antibody, human IgG1, DAR about 4.07, V domains shown)
# VH: B12 VH
# VL: B12 VL
# modifications: vcMMAE on cysteines after TCEP reduction, positions not given
# notes: Antibody-drug conjugate of Hu005-46 (human IgG1, Kappa) with vcMMAE
# B24: mAb001 (antibody, IgG2b, V domains shown)
# VH: B21 VH with A57G
# VL: B21 VL with A34G
# notes: Mouse monoclonal antibody, IgG2b/k
# B25: mAb005 (antibody, IgG2b, V domains shown)
# VH: B12 VH with R19K, G42E, A54G, S78N, N84S, S85H, R87K, A88S, L116S
# VL: B22 VL
# notes: as for B24
# B26: mAb003 (antibody, IgG2c, V domains shown)
# VH: EVQLVESGGGLVKPGGSLKLSCAASGFTFSSYAMSWVRQTPEKRLEWVATISDGGSYTYYPDSVKGRFTISRDNAKNNLYLQMSHLKSEDTDMYYCVRGGYYYNLYAMDYWGQGTSVTVSS
# VL: B22 VL with P32A, T73A, T87A, R96G, Q107K
# notes: Mouse monoclonal antibody, IgG2c/k
# B27: mAb004 (antibody, IgG2b, V domains shown)
# VH: EVQLVESGGGLVQPKGSLKLSCAASGFTFNTYAMHWVRQAPGKGLEWVARIRSKSSNFATYYADSVRDRFTISRDDSQSMLYLQMNNLKTEDTAMYYCVRGYGPSYFSLDYWGQGTSVTVSS
# VL: DVVMTQTPLSLPVSLGDQASISCRSSQSLVHSNGNTYLHWYLQKPGQSPKLLIYKVSNRFSGVPDRFSGSGSGTDFTLKINRVEAEDLGVYFCSQSTHAIYTFGGGTKLEIK
# notes: as for B24
# B28: mAb006 (antibody, IgG2b, V domains shown)
# VH: EVQLQQSGPELVKPGASLKMSCKASGYTFPDYNIHWVKQSHGKSLEWIGYINPNNGGTTYNQKFKGKATLTVSKSSSTAYMELRSLTSEDSAVYSCARRGYGSSYAMDYWAQGTSVTVSS
# VL: B21 VL with N28I, A34G, Y75D, T79K, F99V
# notes: as for B24
# B29: mAb009 (antibody, IgG2b, V domains shown)
# VH: B28 VH with M20L, G57N, T59N, K65E, E89D, Y109F, A111G
# VL: B21 VL with S7T, D17N, N28I, A34G, Y75D, T79K, F99V
# notes: as for B24
# B30: mAb007 (antibody, IgG2b, V domains shown)
# VH: B28 VH with L18V, P30T, I34M, T59S, S73N, E89D, S95Y, S104G, A111G
# VL: B21 VL with S7T, H27Q, N28S, A34G, K44N, S57F, Y75D, T79K, R98L
# notes: as for B24
# B31: mAb008 (antibody, IgG2b, V domains shown)
# VH: B28 VH with L18V, G26E, P30T, I34M, S73N, E89D, S95Y, S104G, A111G, T114A
# VL: DVLLTQTPLSLPVSLGDRASISCTSSQSIVHTNGNTYLEWYLQNPGQSPKLLIYKVSNRFSGVPDRFSGSGSGTDFTLKISRVEAEDLGVYYCFQGSLFPYTFGGGTKLEIK
# notes: as for B24
# Biological target: T1, Extracellular domain of human ROR1 protein (ROR1-ECD) (human, UniProt Q01973 30-403)
# T1 construct: Expressed in HEK293T cells; also called human ROR1-ECD; purified human ROR1 protein extracellular segment
# T1 sequence (Q01973 other isoform, or with tags, fused parts or gaps): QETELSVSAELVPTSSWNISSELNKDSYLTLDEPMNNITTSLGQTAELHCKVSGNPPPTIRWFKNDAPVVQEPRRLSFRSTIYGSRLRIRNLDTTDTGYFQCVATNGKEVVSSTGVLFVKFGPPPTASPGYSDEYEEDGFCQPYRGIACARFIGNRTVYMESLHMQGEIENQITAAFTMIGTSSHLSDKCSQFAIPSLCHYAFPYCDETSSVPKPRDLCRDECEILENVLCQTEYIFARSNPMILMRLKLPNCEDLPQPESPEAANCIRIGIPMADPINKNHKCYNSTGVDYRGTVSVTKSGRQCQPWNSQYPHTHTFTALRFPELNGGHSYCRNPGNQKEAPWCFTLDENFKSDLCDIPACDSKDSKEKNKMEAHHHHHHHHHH
# Assay: ELISA, plate-coated ROR1-ECD
Binder,binding result,EC50
B1,binds,–
B2,binds,–
B3,binds,–
B4,binds,–
B5,binds,–
B6,binds,–
B7,binds,–
B8,binds,–
B9,binds,–
B10,binds,–
B11,binds,–
B12,binds,–
B13,binds,–
B14,binds,–
B15,binds,–
B16,binds,–
B17,binds,–
B18,binds,–
B19,binds,–
B20,binds,–
B21,–,0.028 nM
B22,–,0.046 nM
B23,binds,–

# Biological target: T1, Extracellular domain of human ROR1 …
# Assay: ELISA, purified ROR1-ECD
row,Binder,EC50
1,B24,0.049 nM
2,B25,0.043 nM
3,B26,0.023 nM
4,B27,0.038 nM
5,B28,0.059 nM
6,B29,0.062 nM
7,B30,0.066 nM
8,B31,0.053 nM

# Biological target: T2, human ROR1 on the surface of tumor cells (human, UniProt Q01973 30-937)
# T2 construct: whole, on cells; also called ROR1 on the cell surface; tumor cell ROR1
# T2 sequence (Q01973 30-937): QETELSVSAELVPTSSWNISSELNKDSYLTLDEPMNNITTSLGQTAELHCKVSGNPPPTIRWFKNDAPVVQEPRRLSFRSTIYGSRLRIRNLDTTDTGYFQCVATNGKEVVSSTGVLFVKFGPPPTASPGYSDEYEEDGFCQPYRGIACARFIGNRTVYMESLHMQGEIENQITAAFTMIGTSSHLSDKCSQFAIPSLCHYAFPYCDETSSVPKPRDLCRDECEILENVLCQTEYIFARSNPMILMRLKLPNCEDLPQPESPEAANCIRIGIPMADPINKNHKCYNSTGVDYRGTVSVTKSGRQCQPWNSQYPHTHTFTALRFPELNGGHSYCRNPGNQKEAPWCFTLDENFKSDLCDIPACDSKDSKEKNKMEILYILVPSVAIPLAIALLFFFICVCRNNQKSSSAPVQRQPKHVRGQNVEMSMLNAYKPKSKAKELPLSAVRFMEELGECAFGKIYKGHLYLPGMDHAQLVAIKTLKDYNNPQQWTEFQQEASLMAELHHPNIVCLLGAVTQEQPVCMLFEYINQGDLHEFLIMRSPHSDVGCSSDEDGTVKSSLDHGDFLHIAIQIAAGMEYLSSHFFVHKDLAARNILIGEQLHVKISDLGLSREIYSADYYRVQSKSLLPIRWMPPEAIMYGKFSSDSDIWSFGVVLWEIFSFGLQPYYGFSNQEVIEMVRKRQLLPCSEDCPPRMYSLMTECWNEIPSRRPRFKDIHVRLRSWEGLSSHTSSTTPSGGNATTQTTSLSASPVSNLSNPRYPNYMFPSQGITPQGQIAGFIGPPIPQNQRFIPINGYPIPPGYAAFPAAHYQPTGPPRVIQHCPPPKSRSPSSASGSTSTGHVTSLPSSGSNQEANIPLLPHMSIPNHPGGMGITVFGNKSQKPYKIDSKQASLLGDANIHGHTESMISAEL
# Assay: FACS, MDA-MB-231 cells
Binder,binding result,EC50
B1,binds,–
B2,binds,–
B3,binds,–
B4,binds,–
B5,binds,–
B6,binds,–
B7,binds,–
B8,binds,–
B9,binds,–
B10,binds,–
B11,binds,–
B12,binds,–
B13,binds,–
B14,binds,–
B15,binds,–
B16,binds,–

Binder,binding result,EC50
B17,binds,–
B18,binds,–
B19,binds,–
B20,binds,–
B24,–,0.073 nM
B21,–,0.073 nM
B25,–,0.16 nM
B26,–,0.45 nM
B22,–,0.067 nM
B23,binds,–
B27,–,0.15 nM
B28,–,0.19 nM
B29,–,0.16 nM
B30,–,0.15 nM
B31,–,0.11 nM
